One assay addresses FapC-PAO1 (Pseudomonas aeruginosa, UniProt Q9I2F0). Description: ThT fibrillation assay ([…] FapC-PAO1, […] polyphenol) and SDS-PAGE. In kind it is biochemical.
In assay [1] the target is T1, FapC (FapC-UK4) (Pseudomonas fluorescens, UniProt P0DXF5).
T1 construct: His-tagged FapC wt, 226-residue mature protein without the 24-residue signal peptide
T1 sequence (P0DXF5 25-250): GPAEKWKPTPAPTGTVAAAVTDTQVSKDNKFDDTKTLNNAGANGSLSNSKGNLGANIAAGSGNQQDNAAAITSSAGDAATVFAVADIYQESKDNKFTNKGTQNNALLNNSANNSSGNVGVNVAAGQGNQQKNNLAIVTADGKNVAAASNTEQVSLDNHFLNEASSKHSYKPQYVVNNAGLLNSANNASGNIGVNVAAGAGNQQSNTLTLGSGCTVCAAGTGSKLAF
Description: peptide array and SDS-PAGE blot with NBT staining; supported by ThT fibrillation, SEC and SAXS. In kind it is binding.

Assay [2] has as its target T2, FapC (FapC-UK4) (Pseudomonas fluorescens, UniProt P0DXF5).
T2 construct: His-tagged FapC wt, mature protein (226 residues)
Description: ThT fibrillation assay of purified FapC; supported by CD, ATR-FTIR, SEC and SAXS of oligomers. In kind it is biochemical.

For assay [3], the target named is FapC from Pseudomonas sp. UK4, wild type (Pseudomonas sp. UK4). Description: SAXS; oligomers formed in the presence of EGCG and purified by SEC; Nagg by indirect Fourier transformation; core-shell model. Background: Size exclusion chromatography separates by hydrodynamic size, large species first.
Assay [4] has the same target. Description: SAXS; oligomers formed in the presence of baicalein and purified by SEC; Nagg by indirect Fourier transformation; core-shell model.
Assay [5] has the same target. Description: SAXS; oligomers formed in the presence of PGG and purified by SEC; Nagg by indirect Fourier transformation; core-shell model.
Assay [6] shares this target. Description: SAXS; freshly desalted sample without TCEP; aggregation number (Nagg) by indirect Fourier transformation.
Assay [7] has as its target FapC-UK4 mutant lacking all three imperfect repeats (∆R1R2R3) (Pseudomonas sp. UK4). Description: SAXS; oligomers formed in the presence of PGG and purified by SEC; Nagg by indirect Fourier transformation; core-shell model.
The target is the same in assay [8]. Description: SAXS; freshly desalted sample without TCEP; aggregation number (Nagg) by indirect Fourier transformation.

Chain of FapC-PAO1 (Q9I2F0 25-340): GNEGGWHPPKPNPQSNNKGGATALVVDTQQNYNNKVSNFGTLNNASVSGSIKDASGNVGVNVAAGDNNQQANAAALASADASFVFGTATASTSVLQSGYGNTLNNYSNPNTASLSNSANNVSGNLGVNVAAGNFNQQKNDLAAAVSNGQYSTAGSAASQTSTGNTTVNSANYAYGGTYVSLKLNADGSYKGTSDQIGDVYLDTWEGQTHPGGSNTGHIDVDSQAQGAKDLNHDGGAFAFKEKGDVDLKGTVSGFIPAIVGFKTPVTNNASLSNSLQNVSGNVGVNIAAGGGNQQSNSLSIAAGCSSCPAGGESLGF

Turning to `O=C(O[C@@H]1Cc2c(O)cc(O)cc2O[C@@H]1c1cc(O)c(O)c(O)c1)c1cc(O)c(O)c(O)c1` [EGCG, epigallocatechin gallate], the “ThT fibrillation assay (30 μM FapC-PAO1, 100 μM polyphenol) and SDS-PAGE” value (shortened to “ThT fibrillation assay”) at FapC-PAO1 was “PGG, EGCG, and baicalein keep FapC monomeric or lead to off-pathway oligomers (Figure 4B)”. Besides, the “peptide array and SDS-PAGE blot with NBT staining; supported by ThT fibrillation” value on FapC (FapC-UK4) [1] is reported as “The intensity of EGCG binding varied significantly across the probed peptides (Figure 6C), showing particular affinity for regions”.
In general, IC50 refers to the concentration that inhibits the measured activity by half. For `O=C(OC[C@H]1O[C@@H](OC(=O)c2cc(O)c(O)c(O)c2)[C@H](OC(=O)c2cc(O)c(O)c(O)c2)[C@@H](OC(=O)c2cc(O)c(O)c(O)c2)[C@@H]1OC(=O)c1cc(O)c(O)c(O)c1)c1cc(O)c(O)c(O)c1` [PGG, penta-O-galloyl-β-D-glucose], the “ThT fibrillation assay” value at FapC-PAO1 is “PGG, EGCG, and baicalein keep FapC monomeric or lead to off-pathway oligomers (Figure 4B)”. This compound also registered an IC50 against FapC (FapC-UK4) [2] of about 26 µM.
Regarding `O=c1cc(-c2ccccc2)oc2cc(O)c(O)c(O)c12` [baicalein], the “ThT fibrillation assay” value at FapC-PAO1 was “PGG, EGCG, and baicalein keep FapC monomeric or lead to off-pathway oligomers (Figure 4B)”.
A word on the stoichiometry N: it is a count of units in the complex or per binding partner. Regarding “FapC from Pseudomonas sp. UK4, wild type (natural protein)”, the stoichiometry N came out at 6.7 in assay [3], 6.7 in assay [4], 7.6 in assay [5] and 4.4 in [6].
Regarding “FapC-UK4 mutant lacking all three imperfect repeats (∆R1R2R3) (domain or fragment)”, the stoichiometry N in assay [7] was 4.7; in assay [8] it was 2.7.

(Values after article PMC6920965, “Plant Polyphenols Inhibit Functional Amyloid and Biofilm Formation in Pseudomonas Strains by Directing Monomers to Off-Pathway Oligomers” (Biomolecules, 2019).)
